Laboratory results reported in publication PMC9400960.

target: PABP1-190 (RRM1/2) (human, UniProt P11940 1-190); assay: MST competition
Sequence (P11940 1-190): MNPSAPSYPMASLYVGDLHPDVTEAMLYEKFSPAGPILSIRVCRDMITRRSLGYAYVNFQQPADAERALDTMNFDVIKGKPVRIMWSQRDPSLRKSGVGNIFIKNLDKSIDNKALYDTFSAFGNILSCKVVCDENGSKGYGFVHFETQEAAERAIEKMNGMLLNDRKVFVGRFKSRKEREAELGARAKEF

Going from AAAAAAAAAAAA (XNA, 2'-O-methyl-A in middle part; positions in Figure 2/Table 1) [Am2] to AAAAAAAAAAAA (XNA, 2'-F-A in middle part; positions in Figure 2/Table 1) [AF2], the binding signal falls from ~7 fold higher Kd app than A12 to ~4 fold higher Kd app than A12.

With AAAAAAAAAAAA (ssRNA, N6-methyl-A in middle part; positions in Figure 2/Table 1) [m6A2] the binding signal was ~12 fold higher Kd app than A12.
